# Reference: the NTF2 design screens of Basanta et al. (2020)
# Test: protease stability score; higher = more stable; yeast display proteolysis, trypsin and chymotrypsin;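 also: relative to predicted unfolded state with 0 unfolded-like and 1 meaning tenfold more protease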
sequence,measurement,value
SEEFEIYKRASELLAHLMLTGDFDTMNKLMDPNVRLDVDGVDFHGRELVNRKFQHMRIEHTHIERVIWIGDKVHVHTTMTGNIDGRRDERKMEIVSHKVDGRWHVHSVIIL,protease stability score,1.12
SEEHDKLQRLIRQWWSEFETGDEDKLTEMFDPHARLHIDGRDVIGRENVSKFVFDFFFEMRIHRTHIEHVDAQGDFLILHYHVRGTVNGRESDIHVLIIFTVVNGRMKSVHVHNE,protease stability score,1.38
SEEHEDAEKWIRILLRDLKTGDEESLFQLLDPHTKLEVGDKHFHGREQVMRYVLHELKRVDHMEVELKHHHIQGEKAHLDIEVHNIFDGRVFVKHVHIDSKKINGRWRQEKIYIE,protease stability score,1.33
SEEHEDAHEMFELWSILLITGDERILHQLMDPDAKTTIDGQEFHGREKLIEVFREFLKRIDHIHEVEVTRMTFFDGRLHINLRVHVTINGVHRQFRVIIIIVKIDGRWVIQSQEIV,protease stability score,1.63
SEEHEDIKKFLDDLHSAWNTGDWKALEHMLDPHVKFEINGRNFVGREEVRKLLEQIRLHPRSEIKDVRMQGEFVIVDGRVKIKINVNGREHHEVQEIILYLRKVNGKWYIEEIEIR,protease stability score,1.54
SEEHEEAEHWVRLFIEFMLTGDFDEYRQLMDPNDYIEVGDKSLIGMENWHHLLNRVKNLTIRVKRVRVRVVNGRIHVEMDVRDIINGQEVETRIEMVAVKVNGRWLLKTVHLERE,protease stability score,1.74
SEEHEEERHHVEDLLRALWTGNEEHLKKLADPHMRTILIVNGKQLDLHGWRDMWRALREIRERLGIDHEHIHRSRIYNGRLEIDSRVEVDGVHHIVKIRVDVIDGKNHEFKIEFR,protease stability score,1.63
SEEHEEVERLMRIYFEERLTGDWDRWLSNVDPHTRIIIEIGDKRIELHGWKDFLRFLRFIKNITIHHVHIRHVDVQGDKAHVDEEIDVTIGDKRTKITHEMIIIVVNGRIKHVYERYI,protease stability score,1.44
SEEHEEVHKVIEMLVRHARTGDEDYLRNQFDPNARVRFNGKDRHGRESLDEMLKQFDVIKEVRIKRIDVQGEKIHADIEIRGRYNGQEINTESHIVFKKINGQWIIEEVEFK,protease stability score,1.6
SEEHEFWERLARLTLHWLETGDWDKMNKNADPNVRTEVNGQELHGRESTTEIMRRDEKFFKNARFHLESMDVQGDKVHLIFEVDYNGRTIRRHLDWVIINGRFKEIRVEIR,protease stability score,1.17
SEEHEHIRRVWEEIRRVLETGDEEALMRMIDPNVRIRNVQGDKELDIHGRESVVRRILKIFQEIWFDFEDRHIDIQGDKLHIEGHLILRVNGREHRLDVREVWVVVNGVIHTVEFMVE,protease stability score,1.29
SEEHEIIERMMRLFLNYYFTGDEESIQKNADPDVKLNINGRDIHGRERIAEHLFDEIKHLRWHHLHIHSFIVQGEKARVDTRFDGEVDGVRTIFETEIILVVVNGRMKSIEVHRR,protease stability score,1.28
SEEHEISERLAWMIFELYRTGNEQSIRHLMDPRARIDVNGKEIHGRHIWKERFEEHLVFFKNLRFHLDDVDVQGDKIDIHGTNRFDGRHVRFDLHIHVVDGRLKVITVRIDER,protease stability score,1.55
SEEHEKLHHLMELMLNAITTGDWEIIEHLADPNVRIDQGEWHDHGREKLIHIHELVRERMGIKHVEVRDSRMFHINGVVVIILRLDLNVNGKHRFEILRLQFRKVDGQWVMHSLDIELR,protease stability score,1.74
SEEHEKTRRALELWIDVMKTGDPEHILRLLDPHTKIHQGEFELHGRHDAHRWLSRLGVERIHFELKDVRYFDGQILVDGVIFFNGRESRVNVVAMKVNGRWFVDSLEIQ,protease stability score,0.755
SEEHELAESMAEEVLRSFLTGDEDTLHELFDPHVRVNYNGKVFHGREKLIKILNELRWDHTTVKRIEIRYYGDKVEVVLHVEIHFEINGQRISHRVDIIIIAEKVNGRWRVRDFIYIEK,protease stability score,1.35
SEEHELSHHWADLMFHWMLTGDEEMFEHFADPHVRLHVNGKDIHGREKFVEWLREELEKIKNLTYRLHDVEIQGDKVHLTVKVDVNGKRLDTRVHIDLVNGRVRSIEIRHR,protease stability score,1.42
SEEHEMLKRIMELVIHLFLTGNEDWLRELIDPDTRLHINGVDNHGREEAIRWLHEYNKHLRIHTMEIKRLDVVNGQAHSHVHHEWTINGKQHETEMELIVVVVNGKVKSQELRIK,protease stability score,0.629
SEEHEQLLRMAQIWIKNWLTGDEKSMIELADPRVLFIYGDKIHHGWEEMSKFLHRLMEEIRIEDLRIDSFRAYNGRVEHDTTIDVEIGDKRINLKHHFHLDVVDGRIRHVKVKID,protease stability score,0.726
SEEHERIKRASEEIWRMSETGDFETFFNNFDPNARSDVDGVFNHGREELHRVLLEFWHKLGLTRIDAKVHDDHSFENHLKVDLEERFDGRTVEVRIISRKYDGRWFYTDLIIIRR,protease stability score,0.169
SEEHESSQKAIELLWHSMETGDEKLTEDFADPHVRLEFNGVRFHGRDQMNEIIHRQLREMRLKSIHLHHIYSFNGRVHIHGEVIGRVDGRELSHEMEIVAVKVDGKWVLKSLRIH,protease stability score,1.2
SEEHETMNKLASDLIHDWLTGDWENTKELLDPHVKIDERVNGKNHQHHGREELVRILRERHEKIKGLRISIHHWEVINGRLHMDLRLHINGKTFSVEIHITIVDGRVKHIHVDIN,protease stability score,1.22
SEEHEVAKDAFDVTSHSWKTGDEELFRKLLDPNARFEIDGRDLHGRELVIKFIIEIRWEHTHVEEINVQGDKIIIKSRMEIHYNGVHINITVIVHVRKVNGRWITTHYIFI,protease stability score,1.67
SEEHHDAERAMEEFLKVMNTGNEKLLRDLIDPNVRTEINGQEIIGWKSMHRIMREWGVDNIRVHLRRLEVQGEKLHLEEELNVNGRTSKMEIVALKINGRWVVSEIRFH,protease stability score,2.03
SEEHHHYSELMHQLTEWMLTGNFEEWARYADPNTRARIDIDGRRLEVHGREEMMRVLKEHRKLMGVDHIEVRDRHVFNGRNELIFILHQGDKERHSHITIVVINGQIKEVDIILR,protease stability score,1.61
